According to IntAct's records for PubMed 24879152:

B1: Glycogen synthase kinase-3 alpha (Homo sapiens), P49840 (parent)
chain: MSGGGPSGGGPGGSGRARTSSFAEPGGGGGGGGGGPGGSASGPGGTGGGKASVGAMGGGVGASSSGGGPGGSGGGGSGGPGAGTSFPPPGVKLGRDSGKVTTVVATLGQGPERSQEVAYTDIKVIGNGSFGVVYQARLAETRELVAIKKVLQDKRFKNRELQIMRKLDHCNIVRLRYFFYSSGEKKDELYLNLVLEYVPETVYRVARHFTKAKLTIPILYVKVYMYQLFRSLAYIHSQGVCHRDIKPQNLLVDPDTAVLKLCDFGSAKQLVRGEPNVSYICSRYYRAPELIFGATDYTSSIDVWSAGCVLAELLLGQPIFPGDSGVDQLVEIIKVLGTPTREQIREMNPNYTEFKFPQIKAHPWTKVFKSRTPPEAIALCSSLLEYTPSSRLSPLEACAHSFFDELRCLGTQLPNNRPLPPLFNFSAGELSIQPSLNAILIPPHLRSPAGTTTLTPSSQALTETPTSSDWQSTDATPTLTNSS
partner: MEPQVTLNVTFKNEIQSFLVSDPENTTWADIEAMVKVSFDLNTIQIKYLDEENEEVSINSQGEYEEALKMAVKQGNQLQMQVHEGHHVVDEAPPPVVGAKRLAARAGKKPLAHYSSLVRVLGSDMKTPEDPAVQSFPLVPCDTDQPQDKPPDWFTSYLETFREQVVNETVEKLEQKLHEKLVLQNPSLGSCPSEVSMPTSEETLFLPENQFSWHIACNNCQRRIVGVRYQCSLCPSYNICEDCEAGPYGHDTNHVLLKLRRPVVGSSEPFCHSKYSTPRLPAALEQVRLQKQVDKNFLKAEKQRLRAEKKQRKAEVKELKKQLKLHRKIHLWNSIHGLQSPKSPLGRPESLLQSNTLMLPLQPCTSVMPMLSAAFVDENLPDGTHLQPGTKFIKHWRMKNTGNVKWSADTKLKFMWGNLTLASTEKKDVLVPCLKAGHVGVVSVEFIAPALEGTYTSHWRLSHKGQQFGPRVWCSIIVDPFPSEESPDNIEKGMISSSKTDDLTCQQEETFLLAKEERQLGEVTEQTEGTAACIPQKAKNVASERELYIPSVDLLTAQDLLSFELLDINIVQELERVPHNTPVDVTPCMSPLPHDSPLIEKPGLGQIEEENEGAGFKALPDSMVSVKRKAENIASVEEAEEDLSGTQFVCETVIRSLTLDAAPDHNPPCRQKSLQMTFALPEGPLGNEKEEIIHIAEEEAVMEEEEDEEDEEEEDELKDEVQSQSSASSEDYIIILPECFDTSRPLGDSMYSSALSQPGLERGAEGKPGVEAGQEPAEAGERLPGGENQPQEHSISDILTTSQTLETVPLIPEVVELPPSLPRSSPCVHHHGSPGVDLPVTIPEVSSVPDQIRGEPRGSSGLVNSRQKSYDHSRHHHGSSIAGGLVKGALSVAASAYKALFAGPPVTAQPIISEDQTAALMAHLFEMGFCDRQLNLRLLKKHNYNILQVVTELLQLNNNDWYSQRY
B2: Next to BRCA1 gene 1 protein (Homo sapiens), Q14596 (parent)
chain: B1 partner

Variants of: B1
Details: with nbr1_human NBR1, Q14596

S21A was tested. Which “effect of a mutation on the interaction” value did it give?
Its value is “with no effect”.

With K148A as the variant, how does the “effect of a mutation on the interaction” value read?
Its value is “disrupting interaction strength”.

Variants of: B2
Details: with ubc_human UBC

For T586E;S590E, which “effect of a mutation on the interaction” value is on record?
The value was “with no effect”.

Which “effect of a mutation on the interaction” value does the source give for T586A;S590A here?
The value was “with no effect”.

Variants of: B2
Details: with mlp3b_human MAP1LC3B

T586E;S590E was tested. Which “effect of a mutation on the interaction” value did it give?
The value was “with no effect”.

Which “effect of a mutation on the interaction” value does the source give for T586A;S590A here?
Its value is “with no effect”.

Variants of: B2
Details: with gbrap_human GABARAP

Which “effect of a mutation on the interaction” value does the source give for T586E;S590E here?
The value was “with no effect”.

How did the “effect of a mutation on the interaction” value turn out when T586A;S590A was run?
The value was “with no effect”.

Variants of: B2
Details: with mlp3b_mouse Map1lc3b

How did the “effect of a mutation on the interaction” value turn out when T586E;S590E was run?
Its value is “with no effect”.

Which “effect of a mutation on the interaction” value does the source give for T586A;S590A here?
The value was “with no effect”.

Variants of: B2
Details: with gsk3a_human GSK3A

With T586A;S590A as the variant, how does the “effect of a mutation on the interaction” value read?
The value was “with no effect”.

For T581A, which “effect of a mutation on the interaction” value is on record?
Its value is “decreasing interaction strength”.

For T581A;T586A;S590A, which “effect of a mutation on the interaction” value is on record?
The value was “decreasing interaction strength”.

With S590A as the variant, how does the “effect of a mutation on the interaction” value read?
Its value is “with no effect”.

T586A was tested. Which “effect of a mutation on the interaction” value did it give?
The value was “with no effect”.

Variants of: B2
Details: with gsk3b_human GSK3B

With T581A as the variant, how does the “effect of a mutation on the interaction” value read?
The value was “with no effect”.

With T581A;T586A;S590A as the variant, how does the “effect of a mutation on the interaction” value read?
Its value is “disrupting interaction strength”.
